Holding throughout (test): EMSA; 10 mM Tris-HCl pH 7.5, 1 mM DTT, 50 mM KCl, 5 mM MgCl2, 25% glycerol, 1 ug/ml poly dI-dC, 50-100 fmol biotinylated DNA, 25-30 C, 20 min
Holding throughout (settings): protein: recombinant; tags: C-terminal V5-6xHis; chain copies: 2; label: 5'-biotin top strand
Background: A gel shift assay detects complexes by their altered migration in electrophoresis.

Series [1] concerns the target T1, DVU3023 response regulator (Desulfovibrio vulgaris Hildenborough, UniProt Q726T3 1-474).
T1 sequence: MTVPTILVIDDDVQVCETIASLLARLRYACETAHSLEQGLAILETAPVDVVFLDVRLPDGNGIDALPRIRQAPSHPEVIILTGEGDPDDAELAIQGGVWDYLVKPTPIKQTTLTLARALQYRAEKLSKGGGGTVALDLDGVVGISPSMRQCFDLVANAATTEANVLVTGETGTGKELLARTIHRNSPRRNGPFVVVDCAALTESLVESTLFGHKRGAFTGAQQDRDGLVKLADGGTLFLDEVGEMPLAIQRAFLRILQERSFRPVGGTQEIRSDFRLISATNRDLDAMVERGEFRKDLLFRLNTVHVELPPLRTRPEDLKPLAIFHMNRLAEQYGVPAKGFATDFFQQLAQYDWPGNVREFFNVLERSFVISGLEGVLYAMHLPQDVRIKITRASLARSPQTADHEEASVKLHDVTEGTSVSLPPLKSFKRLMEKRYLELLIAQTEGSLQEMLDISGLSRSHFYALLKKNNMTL

The target of series [2] is T2, DVU2934 response regulator (Desulfovibrio vulgaris Hildenborough, UniProt Q727C1 1-472).
T2 sequence: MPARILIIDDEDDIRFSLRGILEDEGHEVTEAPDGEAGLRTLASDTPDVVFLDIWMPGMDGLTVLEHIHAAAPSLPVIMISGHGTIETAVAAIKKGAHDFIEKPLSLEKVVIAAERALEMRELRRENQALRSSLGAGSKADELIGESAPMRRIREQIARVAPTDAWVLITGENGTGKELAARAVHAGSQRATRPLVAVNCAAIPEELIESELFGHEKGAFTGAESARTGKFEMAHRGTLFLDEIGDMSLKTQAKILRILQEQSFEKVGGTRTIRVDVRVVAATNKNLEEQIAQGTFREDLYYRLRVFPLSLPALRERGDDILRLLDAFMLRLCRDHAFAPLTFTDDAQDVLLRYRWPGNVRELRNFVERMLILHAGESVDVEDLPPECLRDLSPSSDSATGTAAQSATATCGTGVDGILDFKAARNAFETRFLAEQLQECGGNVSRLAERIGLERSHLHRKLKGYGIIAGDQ

Series [3] deals with T3, DVU0679 response regulator (Desulfovibrio vulgaris Hildenborough, UniProt Q72E99 1-488).
T3 sequence: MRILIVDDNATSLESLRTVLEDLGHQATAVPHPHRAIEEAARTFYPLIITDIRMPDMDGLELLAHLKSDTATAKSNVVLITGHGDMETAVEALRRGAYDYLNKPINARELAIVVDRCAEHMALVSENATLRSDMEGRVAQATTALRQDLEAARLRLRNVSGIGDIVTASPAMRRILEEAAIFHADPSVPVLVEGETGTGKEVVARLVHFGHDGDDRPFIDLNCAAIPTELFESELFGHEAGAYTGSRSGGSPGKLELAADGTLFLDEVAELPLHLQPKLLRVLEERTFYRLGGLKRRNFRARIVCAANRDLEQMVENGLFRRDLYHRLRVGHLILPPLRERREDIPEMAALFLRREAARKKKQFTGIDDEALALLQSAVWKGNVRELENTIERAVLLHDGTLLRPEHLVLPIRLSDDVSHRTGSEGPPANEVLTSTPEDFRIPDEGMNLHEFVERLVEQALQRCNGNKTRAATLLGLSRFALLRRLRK

The target in series [4] is T4, DVU3305 response regulator (Desulfovibrio vulgaris Hildenborough, UniProt Q725X0 1-451).
T4 sequence: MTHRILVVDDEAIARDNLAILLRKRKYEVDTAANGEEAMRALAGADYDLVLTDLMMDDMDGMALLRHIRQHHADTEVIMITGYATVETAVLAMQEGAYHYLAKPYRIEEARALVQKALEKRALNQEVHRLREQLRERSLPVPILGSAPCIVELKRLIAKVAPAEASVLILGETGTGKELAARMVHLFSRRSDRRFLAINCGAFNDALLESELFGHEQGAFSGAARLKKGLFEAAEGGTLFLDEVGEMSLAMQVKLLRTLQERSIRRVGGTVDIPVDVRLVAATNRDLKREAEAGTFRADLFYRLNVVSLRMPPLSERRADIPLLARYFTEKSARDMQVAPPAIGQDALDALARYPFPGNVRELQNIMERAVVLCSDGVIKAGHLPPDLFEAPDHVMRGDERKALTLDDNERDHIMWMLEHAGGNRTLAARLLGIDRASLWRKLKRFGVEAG

For series [5], the target named is T5, DVU1083 response regulator (PhoB) (Desulfovibrio vulgaris Hildenborough, UniProt Q72D47 1-229).
T5 sequence: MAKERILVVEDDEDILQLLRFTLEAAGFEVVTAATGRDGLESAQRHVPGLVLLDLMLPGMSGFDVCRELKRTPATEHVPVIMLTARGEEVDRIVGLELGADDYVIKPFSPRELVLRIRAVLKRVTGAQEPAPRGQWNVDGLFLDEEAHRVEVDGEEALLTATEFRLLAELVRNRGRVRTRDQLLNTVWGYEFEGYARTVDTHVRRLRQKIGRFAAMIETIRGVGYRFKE

The target in series [6] is T6, DVU0946 response regulator (Desulfovibrio vulgaris Hildenborough, UniProt Q72DI3 1-476).
T6 sequence: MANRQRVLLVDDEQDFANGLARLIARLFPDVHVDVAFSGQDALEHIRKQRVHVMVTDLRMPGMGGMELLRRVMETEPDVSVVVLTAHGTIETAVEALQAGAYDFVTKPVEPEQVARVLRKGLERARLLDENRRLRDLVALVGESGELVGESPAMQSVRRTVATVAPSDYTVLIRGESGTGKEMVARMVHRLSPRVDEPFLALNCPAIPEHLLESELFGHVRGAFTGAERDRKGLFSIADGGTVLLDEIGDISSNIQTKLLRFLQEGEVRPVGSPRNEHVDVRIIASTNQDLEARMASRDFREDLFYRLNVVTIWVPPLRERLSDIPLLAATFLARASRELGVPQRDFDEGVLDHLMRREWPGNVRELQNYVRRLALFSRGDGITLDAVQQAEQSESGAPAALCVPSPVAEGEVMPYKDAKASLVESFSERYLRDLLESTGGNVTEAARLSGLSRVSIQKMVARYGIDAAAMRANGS

Series [7] has as its target T7, DVU0539 response regulator (Desulfovibrio vulgaris Hildenborough, UniProt Q72EN8 1-467).
T7 sequence: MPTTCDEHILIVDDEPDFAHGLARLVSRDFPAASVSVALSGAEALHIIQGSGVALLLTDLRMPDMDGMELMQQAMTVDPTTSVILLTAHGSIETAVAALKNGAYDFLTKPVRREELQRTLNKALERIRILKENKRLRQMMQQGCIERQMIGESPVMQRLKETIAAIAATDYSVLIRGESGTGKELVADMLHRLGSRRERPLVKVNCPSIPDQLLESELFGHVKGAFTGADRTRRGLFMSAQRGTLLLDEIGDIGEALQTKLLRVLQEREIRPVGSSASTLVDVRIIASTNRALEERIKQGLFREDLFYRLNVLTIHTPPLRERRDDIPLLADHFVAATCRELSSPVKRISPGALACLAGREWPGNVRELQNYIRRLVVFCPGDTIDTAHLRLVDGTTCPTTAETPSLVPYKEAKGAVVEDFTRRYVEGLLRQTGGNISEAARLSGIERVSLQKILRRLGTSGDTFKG

Series [8] addresses T8, DVU2588 response regulator (Desulfovibrio vulgaris Hildenborough, UniProt Q728L5 1-226).
T8 sequence: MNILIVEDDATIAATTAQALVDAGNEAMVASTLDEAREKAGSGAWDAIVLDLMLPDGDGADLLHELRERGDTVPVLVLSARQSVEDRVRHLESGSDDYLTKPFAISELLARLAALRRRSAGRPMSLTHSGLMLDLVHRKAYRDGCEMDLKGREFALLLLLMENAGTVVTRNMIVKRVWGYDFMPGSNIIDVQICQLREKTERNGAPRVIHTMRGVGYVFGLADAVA

The target in series [9] is T9, DVU3381 response regulator (Desulfovibrio vulgaris Hildenborough, UniProt Q725P3 1-459).
T9 sequence: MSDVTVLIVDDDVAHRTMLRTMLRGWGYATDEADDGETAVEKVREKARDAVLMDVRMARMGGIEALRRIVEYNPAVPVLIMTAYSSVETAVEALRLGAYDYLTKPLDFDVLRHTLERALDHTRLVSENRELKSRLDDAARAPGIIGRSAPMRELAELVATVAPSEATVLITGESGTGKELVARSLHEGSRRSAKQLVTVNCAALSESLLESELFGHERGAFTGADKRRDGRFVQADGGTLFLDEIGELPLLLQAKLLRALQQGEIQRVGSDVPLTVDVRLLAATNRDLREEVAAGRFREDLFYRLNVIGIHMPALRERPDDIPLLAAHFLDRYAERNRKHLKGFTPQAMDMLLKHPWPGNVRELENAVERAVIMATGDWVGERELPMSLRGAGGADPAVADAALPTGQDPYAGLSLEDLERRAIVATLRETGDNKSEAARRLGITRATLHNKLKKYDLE

Eight molecules from PMC3333781, “Systematic mapping of two component response regulators to gene targets in a model sulfate reducing bacterium” can be followed below.

B1: DVU3025 motif mut (dsDNA)
DNA 1: GCCACACGAACTGCGCTTTTCAATCAACGCTACCAC
DNA 2: GTGGTAGCGTTGATTGAAAAGCGCAGTTCGTGTGGC
For B1, the binding result in [1] is on record as “no binding”.

B2: DVU2917 motif mut (dsDNA)
DNA 1: CTCGCCATGTGGACTGCAGAAGAGAGACTGTGCGTGG
DNA 2: CCACGCACAGTCTCTCTTCTGCAGTCCACATGGCGAG
In the case of B2, the binding result in series [2] is “no binding”.

B3: DVU0677 motif mut (dsDNA)
DNA 1: AATCGCACGCGGAGAGTATTCGGATGTGCTTTTCCG
DNA 2: CGGAAAAGCACATCCGAATACTCTCCGCGTGCGATT
On to B3, for which the binding result in series [3] is “no binding”.

B4: DVU3303 motif mut (dsDNA)
DNA 1: AAAGCCTCGTCATGGGATATCGTACACGAGGCCAC
DNA 2: GTGGCCTCGTGTACGATATCCCATGACGAGGCTTT
For B4, in series [4], the binding result is “no binding”.

B5: DVU1083 motif mut (dsDNA)
DNA 1: GTTGTAAAATGACAAACGGTTCTAGACGCTCTTCCA
DNA 2: TGGAAGAGCGTCTAGAACCGTTTGTCATTTTACAAC
For the molecule B5, the binding result in [5] was “no binding”.

B6: DVU0943 second site mut (dsDNA)
DNA 1: AAAGGGCTCGACAACAGATGTTCCATGCAAA
DNA 2: TTTGCATGGAACATCTGTTGTCGAGCCCTTT
As for B6, the binding result in series [6] and in series [7] was “no binding” each time.

B7: DVU0943 DVU2588-motif mut (dsDNA)
DNA 1: CGTCCTGCACCTAATCATTCTTAAGTTAAAAGCTGT
DNA 2: ACAGCTTTTAACTTAAGAATGATTAGGTGCAGGACG
On to B7, for which the binding result in series [8] is reported as “no binding”.

B8: DVU3384 motif mut (dsDNA)
DNA 1: CACGAATGGAATGTATTTTTCTTGCACCCATACAC
DNA 2: GTGTATGGGTGCAAGAAAAATACATTCCATTCGTG
Take B8: the binding result in series [9] is “no binding”.
